Test results as given in patent publication US20150239933A1 (GEORGETOWN UNIVERSITY, published 2015).
Where “and” joins values, the source holds several entries; their conditions need not be identical. Equal values may be shown once.

B1: tubulin α4 C-terminal tail (CTT) peptide, Δ2 isoform (peptide)
peptide: EDEDEGE
notes: Synthetic peptide from GenScript; also called α4 Δ2 isoform
B2: tubulin α1A/1B C-terminal tail (CTT) peptide, tyrosinated isoform (peptide)
peptide: EGEGEEEGEEY
notes: Synthetic peptide from GenScript; also called α1A/1B tyrosinated isoform
B3: Helix-B peptide (peptide)
peptide: RAKWNNTLKQIASK
notes: Synthetic peptide from GenScript
B4: tubulin α1A/1B C-terminal tail (CTT) peptide, more basic variant EGEGEEEGQQQ (peptide)
peptide: EGEGEEEGQQQ
notes: Synthetic variant peptide from GenScript; also called α1A/1B more basic
B5: tubulin α1A/1B C-terminal tail (CTT) peptide, detyrosinated isoform (peptide)
peptide: EGEGEEEGEE
notes: Synthetic peptide from GenScript; also called α1A/1B detyrosinated isoform
B6: tubulin α1A/1B C-terminal tail (CTT) peptide, more basic variant EGEGEEEGQQ (peptide)
peptide: EGEGEEEGQQ
notes: as for B4
B7: tubulin α4 C-terminal tail (CTT) peptide, tyrosinated isoform (peptide)
peptide: EDEDEGEEY
notes: Synthetic peptide from GenScript; also called α4 tyrosinated isoform
B8: Human recombinant TUBB3 (other)
chain: MREIVHIQAGQCGNQIGAKFWEVISDEHGIDPSGNYVGDSDLQLERISVYYNEASSHKYVPRAILVDLEPGTMDSVRSGAFGHLFRPDNFIFGQSGAGNNWAKGHYTEGAELVDSVLDVVRKECENCDCLQGFQLTHSLGGGTGSGMGTLLISKVREEYPDRIMNTFSVVPSPKVSDTVVEPYNATLSIHQLVENTDETYCIDNEALYDICFRTLKLATPTYGDLNHLVSATMSGVTTSLRFPGQLNADLRKLAVNMVPFPRLHFFMPGFAPLTARGSQQYRALTVPELTQQMFDAKNMMAACDPRHGRYLTVATVFRGRMSMKEVDEQMLAIQSKNSSYFVEWIPNNVKVAVCDIPPRGLKMSSTFIGNSTAIQELFKRISEQFTAMFRRKAFLHWYTGEGMDEMEFTEAESNMNDLVSEYQQYQDATAEEEGEMYEDDEEESEAQGPK
notes: Bought protein; immobilised by amine coupling in SPR, in solution in the dot blot; also called tubulin β-3; Tubulin β-3
B9: tubulin α1A/1B C-terminal tail (CTT) peptide, more basic variant EGEGEEEGQQQQ (peptide)
peptide: EGEGEEEGQQQQ
notes: as for B4
B10: tubulin β2A/2B C-terminal tail (CTT) peptide (peptide)
peptide: EEEEGEDEA
notes: as for B3
B11: tubulin α4 C-terminal tail (CTT) peptide, detyrosinated isoform (peptide)
peptide: EDEDEGEE
notes: Synthetic peptide from GenScript; also called α4 detyrosinated isoform

Legend:
[1] = target: T1, gp120IIIB (HIV, UniProt P04578 33-511); assay: dot blot: 2 µg peptide spotted, 5 µg gp120IIIB in 20 mL, anti-gp120 antibody
T1 construct: Bought protein
Description: Dot blot analysis: CTTs or Helix-A and -B peptides (2 μg each) were spotted on a nitrocellulose membrane and allowed to dry. […] The membranes were washed and then incubated with a mouse anti-gp120 antibody (1:1000; Immunodiagnostics, Inc.) or mouse anti-TUBB3 antibody (1:5000; Covance, NJ) in TBST for 2 hours. Membranes were washed and incubated in goat anti-mouse HP-conjugated secondary antibody (1:20,000; Jackson ImmunoResearch Laboratories, Inc., PA). Visualization of the bands was then accomplished by the addition of PIERCE® SUPERSIGNAL™ West Pico-Stable Peroxidase Solution and Luminol/Enhancer Solution (Pierce Biotechnology, Inc., Rockford, Ill.).
Following incubation with a corresponding HRP-conjugated secondary antibody 1 hour at RT, the immunocomplexes were visualized with chemiluminescence.

[2] = target: T2, assembled microtubules (containing ~25% of TUBB3) (porcine, UniProt F1S6M7 41-471); assay: SPR Biacore T200, 60 sec injection of 10 uM over immobilised microtubules, reference-subtracted
T2 construct: also called assembled MTs; MTs

[3] = target: B8; assay: SPR (Biacore T200), recombinant TUBB3 amine-coupled to a CM5 chip, peptide as analyte at 625 nM to 20 µM
[4] = target: T1, gp120IIIB; assay: SPR Biacore T200, TUBB3 amine-coupled to CM5, gp120 3.13-100 nM as analyte, 1:1 model; one of two experiments
[5] = target: T3, gp120MN (HIV, UniProt P05877 32-513); assay: as above
T3 construct: Bought protein; only its gp120 part would apply; also called GP-MN

[6] = target: T1, gp120IIIB; assay: SPR Biacore T200, TUBB3 immobilised, 1:1 model; mean of two experiments
Description: (§1) After ligand capture, the surfaces were deactivated by injecting 1 M ethanolamine for 720 sec at 10 μL/min. HBS-P (10 mM HEPES, pH7.4, 150 mM NaCl, 0.05% P-20) with 2 mM MgCl₂ used as the running buffer. Flow cell 1 on each chip was left empty and used for reference surface. […] Kinetic studies were performed by injecting different concentrations of the analytes in triplicate. The chip surface was regenerated by with 10 mM glycine pH 1.5 injected for 30 sec at a flow rate of 100 μL/min. Each sample was injected for 60 sec (contact time) followed by a dissociation time of 300 sec at a flow rate of 100 μL/min. Data was analyzed with BIACORE® T200™ Evaluation Software (version 1) to determine the equilibrium dissociation constant (KD) from a 1:1 binding model.
(§2) Recombinant TUBB3, tubulin dimer, and assembled MTs from bovine brains were immobilized on a BIACORE® CM5 chip by amine coupling. […] The kinetics of interaction was analyzed using a BIACORE® T200™ instrument. BiaEvaluation software was used to calculate binding affinities based on 1:1 binding model.

[7] = target: T3, gp120MN; assay: as above
Description: as §1, §2

| Binder | binding result [1] | other results |
| --- | --- | --- |
| B1 | no binding |  |
| B2 | no binding |  |
| B3 |  | response (4-1) RU [2]: 0.2 RU; binding result [3]: no binding (tested: 20 µM) |
| B4 | no binding |  |
| B5 | no binding |  |
| B6 | no binding |  |
| B7 | no binding |  |
| B8 |  | Kd [4]: 7.91 nM and 7.05 nM; Kd [5]: 901 nM and 579 nM; Kd [6]: 7.5 nM; Kd [7]: 740 nM |
| B9 | no binding |  |
| B10 | no binding |  |
| B11 | no binding |  |
